Kd data for two substances are collected here from publication PMC10336103, “ResR/McdR-regulated protein translation machinery contributes to drug resilience in Mycobacterium tuberculosis” (Communications Biology, 2023).

Common to all, as to test: EMSA
(In general: In EMSA bound probe runs differently from free probe, usually more slowly.)

Series [1] has as its system ResR/McdR (ResR1-225) (Mycobacterium tuberculosis Erdman).
The subject of series [2] is ResR/McdR17-225 (Mycobacterium tuberculosis Erdman).
Series [3] has as its system ResR/McdRMS (Mycobacterium smegmatis).

In general, Kd refers to the equilibrium constant for the complex coming apart. Turning to PwhiB2_FL, the Kd in series [1] turned out to be 330 nM.
For PrplN_FL, the Kd in series [1] was found to be 780 nM; in series [2], 1170 nM; in series [3] it was 1400 nM.
